Measurements taken from patent publication US20160041176A1 (NATIONAL UNIVERSITY CORPORATION NAGOYA UNIVERSITY, published 2016).
Substitutions are numbered along the chain they refer to.

How the values were obtained:
[1] = target: F-actin (filamentous actin); experiment: actin cosedimentation, 1 µM GST-CT2 with 0-2.5 µM F-actin, Scatchard analysis
[2] = tested on: T1, GST-CT (GST-fused CT domain of Girdin)
T1 sequence: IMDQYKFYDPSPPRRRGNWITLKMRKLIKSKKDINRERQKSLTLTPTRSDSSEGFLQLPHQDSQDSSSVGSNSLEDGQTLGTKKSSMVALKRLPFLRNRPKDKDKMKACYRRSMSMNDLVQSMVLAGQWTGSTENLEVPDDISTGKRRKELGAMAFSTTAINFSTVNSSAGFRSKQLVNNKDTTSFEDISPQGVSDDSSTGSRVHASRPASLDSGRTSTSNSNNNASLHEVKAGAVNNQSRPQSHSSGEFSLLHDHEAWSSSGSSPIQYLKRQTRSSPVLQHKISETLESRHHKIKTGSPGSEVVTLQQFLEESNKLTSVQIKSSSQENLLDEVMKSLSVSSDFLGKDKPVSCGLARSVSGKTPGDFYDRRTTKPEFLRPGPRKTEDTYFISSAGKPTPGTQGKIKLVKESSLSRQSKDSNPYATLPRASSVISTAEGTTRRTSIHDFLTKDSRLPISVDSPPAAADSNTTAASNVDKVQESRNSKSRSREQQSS

[3] = tested on: T2, Girdin CT-V5 SA mutant (serine 1416 replaced with alanine)
T2 sequence: T1 sequence with S41A

[4] = tested on: T3, Girdin CT-V5 wild type (WT)
T3 sequence: T1 sequence

[5] = tested on: T4, V5 epitope-tagged NT domain of Girdin (NT-V5)
T4 sequence: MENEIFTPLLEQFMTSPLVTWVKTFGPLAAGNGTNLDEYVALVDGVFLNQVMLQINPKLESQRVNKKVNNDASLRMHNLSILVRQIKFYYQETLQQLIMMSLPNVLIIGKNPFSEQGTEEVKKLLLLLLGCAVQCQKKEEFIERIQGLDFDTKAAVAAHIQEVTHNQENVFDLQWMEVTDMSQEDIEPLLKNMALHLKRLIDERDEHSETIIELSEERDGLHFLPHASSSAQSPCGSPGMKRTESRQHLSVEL

[6] = tested on: T5, coiled-coil domain of Girdin tagged with V5
T5 sequence: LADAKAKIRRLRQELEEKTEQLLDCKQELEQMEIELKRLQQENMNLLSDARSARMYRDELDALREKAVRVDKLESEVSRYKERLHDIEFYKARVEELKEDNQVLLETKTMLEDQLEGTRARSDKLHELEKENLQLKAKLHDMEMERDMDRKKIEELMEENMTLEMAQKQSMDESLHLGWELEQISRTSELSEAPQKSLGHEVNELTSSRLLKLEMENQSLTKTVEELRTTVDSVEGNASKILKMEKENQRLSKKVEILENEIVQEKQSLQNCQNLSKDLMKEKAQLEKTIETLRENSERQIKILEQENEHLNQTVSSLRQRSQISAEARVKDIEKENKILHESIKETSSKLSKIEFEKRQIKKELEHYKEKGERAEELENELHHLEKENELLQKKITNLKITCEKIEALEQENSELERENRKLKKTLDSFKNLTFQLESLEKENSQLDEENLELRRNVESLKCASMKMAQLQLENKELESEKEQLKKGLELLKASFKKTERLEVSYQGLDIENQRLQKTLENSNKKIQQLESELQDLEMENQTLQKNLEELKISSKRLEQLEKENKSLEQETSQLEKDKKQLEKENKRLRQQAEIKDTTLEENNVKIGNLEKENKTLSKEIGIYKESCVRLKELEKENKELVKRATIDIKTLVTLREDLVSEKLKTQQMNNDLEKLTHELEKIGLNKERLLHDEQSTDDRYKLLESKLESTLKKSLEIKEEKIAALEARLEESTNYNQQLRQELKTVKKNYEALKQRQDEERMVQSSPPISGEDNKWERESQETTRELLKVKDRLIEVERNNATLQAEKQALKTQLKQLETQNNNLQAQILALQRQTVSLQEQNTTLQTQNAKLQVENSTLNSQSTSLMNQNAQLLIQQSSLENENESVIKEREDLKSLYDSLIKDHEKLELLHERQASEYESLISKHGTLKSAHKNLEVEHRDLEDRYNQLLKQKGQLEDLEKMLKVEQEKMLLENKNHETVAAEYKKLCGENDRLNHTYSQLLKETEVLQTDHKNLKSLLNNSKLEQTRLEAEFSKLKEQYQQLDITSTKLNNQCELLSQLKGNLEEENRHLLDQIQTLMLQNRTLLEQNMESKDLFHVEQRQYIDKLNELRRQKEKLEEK

[7] = target: the molecule itself; experiment: expression in COS7 cells, coimmunoprecipitation (data not shown)

glutathione S-transferase (GST)-fused CT2 of Girdin (GST-CT2) (from UniProt Q3V6T2 1624-1871)
Kd [1]: 1.03 µM

recombinant active Akt (Upstate)
in vitro kinase assay (phosphorylation detected by anti-P-Girdin antibody) [2]: Purified GST-CT was effectively phosphorylated by Akt in vitro
in vitro kinase assay (phosphorylation, autoradiography) [3]: but not its Ser-1416 substituted with Ala mutant (SA), was phosphorylated by active Akt
in vitro kinase assay (phosphorylation, autoradiography) [4]: Girdin CT wild type (WT) ... was phosphorylated by active Akt
in vitro kinase assay (phosphorylation, autoradiography) [5]: neither the NT nor the coiled-coil domain of Girdin was phosphorylated by Akt in vitro
in vitro kinase assay (phosphorylation, autoradiography) [6]: neither the NT nor the coiled-coil domain of Girdin was phosphorylated by Akt in vitro

B1: CT domain of Girdin (expressed in cells, oligomerisation test) (other)
chain: T1 sequence
binding result [7]: no binding
